From patent US20160355591A1 come the findings set out here.

The target of test [1] is CD74 on human cells (human) (UniProt P04233). As to the kind of experiment: indirect FACS, Ramos cells, FITC-GAH Fc 2nd Ab; none 3.1.
The target in test [2] is CD74 on dog lymphocytes and dog lymphoma cells (dog). As to the kind of experiment: flow cytometry, canine lymphoma aspirate 150836; none 4.5. (In general: In flow cytometry, cells or beads pass a laser one at a time.)
Test [3] deals with CD74 on human cells (human) (UniProt P04233). In words: indirect flow cytometry, RL cells, FITC-GAH Fc 2nd Ab; none 2.4.
Test [4] shares this target. In words: indirect flow cytometry, Namalwa cells, FITC-GAH Fc 2nd Ab; none 2.6.
The target is the same in test [5]. In words: indirect FACS, Daudi cells, FITC-GAH Fc 2nd Ab; none 3.1.
The target is the same in test [6]. As to the kind of experiment: indirect flow cytometry, Namalwa cells, FITC-GAH 2nd Ab; none 2.52.
For test [7] the target is unchanged. As to the kind of experiment: indirect flow cytometry, SU-DHL-6 cells, FITC-GAH Fc 2nd Ab; none 4.6.
The target is the same in test [8]. In words: indirect flow cytometry, Raji cells, FITC-GAH Fc 2nd Ab; none 6.9.
Test [9] has the same target. In words: indirect flow cytometry, WSU-FSCCL cells, FITC-GAH Fc 2nd Ab; none 2.7.
The target is the same in test [10]. As to the kind of experiment: indirect FACS, Raji cells, FITC-GAH Fc 2nd Ab; none 6.8.
Test [11] shares this target. As to the kind of experiment: indirect FACS, WSU-FSCCL cells, FITC-GAH Fc 2nd Ab; none 2.6.
Test [12] has as its target CD74 on dog lymphocytes and dog lymphoma cells (dog). As to the kind of experiment: flow cytometry, dog lymphoma aspirate; none 3.24.
For test [13] the target is unchanged. In words: flow cytometry, dog lymphoma aspirate; none 4.48.
Test [14] concerns the target CD74 on human cells (human) (UniProt P04233). As to the kind of experiment: indirect flow cytometry, Daudi cells, FITC-GAH Fc 2nd Ab; none 3.2.
For test [15], the target named is CD74 on dog lymphocytes and dog lymphoma cells (dog). In words: flow cytometry, canine lymphoma aspirate 150836; none 3.2.
In test [16] the target is CD74 on human cells (human) (UniProt P04233). As to the kind of experiment: indirect flow cytometry, Ramos cells, FITC-GAH Fc 2nd Ab; none 3.1.
For test [17] the target is unchanged. In words: indirect FACS, SU-DHL-6 cells, FITC-GAH Fc 2nd Ab; none 4.6.
Test [18] has the same target. In words: indirect FACS, Namalwa cells, FITC-GAH Fc 2nd Ab; none 2.5.

Sequence of CD74 on human cells (human) (P04233 whole entry): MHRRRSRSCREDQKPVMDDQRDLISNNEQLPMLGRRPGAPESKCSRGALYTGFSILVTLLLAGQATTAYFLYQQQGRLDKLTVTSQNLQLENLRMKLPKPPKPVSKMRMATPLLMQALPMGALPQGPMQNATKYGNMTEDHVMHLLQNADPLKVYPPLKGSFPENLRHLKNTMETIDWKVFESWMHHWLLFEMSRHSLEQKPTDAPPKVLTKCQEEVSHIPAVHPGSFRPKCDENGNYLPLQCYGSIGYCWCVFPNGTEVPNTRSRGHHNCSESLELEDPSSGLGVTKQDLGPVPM

For the substance “hLL1 (milatuzumab, humanized anti-CD74) (antibody)”, the geometric mean fluorescence came out at 23.2 in test [1]; 7.9 in [3]; 7.8 in test [4]; 48.8 in test [5]; 10.1 in [6]; 17.3 in [7]. In addition, the geometric mean fluorescence in test [8] was 95.1; in [9] it was 8.7; in test [10], 95.1; in [11], 8.66; in [14] it was 48.8; in test [16], 23.3. Also, the geometric mean fluorescence came to 17.3 in test [17] and 7.81 in test [18]. In addition, the % Positive in test [2] is 4.7%; in test [13], 4.71%. Moreover, the mean FL in test [12] turned out to be 3.33; in test [15] it was 3.3.
